{"source": "paper PMC4926178", "about": "(Viruses, 2016)", "molecules": {"B1": {"name": "wild-type Cyanovirin-N (WT CV-N), P81180 1-101 (natural protein)", "chain": "LGKFSQTCYNSAIQGSVLTSTCERTNGGYNTSSIDLNSVIENVDGSLKWQPSNFIETCRNTQLAGSSELAAECKTRAQQFVSTKINLDDHIANIDGTLKYE", "modifications": "here or on the partner: glycosylated (oligomannose glycans; about 25 sites per monomer)"}, "B2": {"name": "wild-type Cyanovirin-N (WT CV-N) (natural protein)", "chain": "B1 chain"}}, "test_in_all_cases": "ELISA", "key": {"[1]": {"target": "glycosylated soluble gp120 (rgp 120 HIV-1 MN, baculovirus) (HIV-1 MN) (UniProt P05877)"}, "[2]": {"target": "T1, ribonuclease B (UniProt P61823 27-150)", "T1 construct": "also called RNase B", "T1 sequence (looked up)": "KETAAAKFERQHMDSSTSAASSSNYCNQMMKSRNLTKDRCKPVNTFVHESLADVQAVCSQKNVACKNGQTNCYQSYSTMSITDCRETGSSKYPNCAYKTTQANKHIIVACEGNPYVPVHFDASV"}, "[3]": {"target": "glycosylated soluble gp120 (rgp 120 HIV-1 MN, baculovirus) (HIV-1 MN), P05877", "settings": "remark: other sources report otherwise"}}, "note": "Like-named read-outs stand apart in the source and are kept apart here."}
{"molecule": "Nested Cyanovirin-N (Nested CV-N) (from UniProt P81180 1-50; P81180 1-101) (designed binder)", "values": [{"measurement": "EC50", "setting": "[1]", "value": 1.29, "unit": "nM"}, {"measurement": "EC50", "setting": "[2]", "value": 13, "unit": "nM"}]}
{"molecule": "B1", "values": [{"measurement": "EC50", "setting": "[3]", "value": 1.66, "unit": "nM"}]}
{"molecule": "B2", "values": [{"measurement": "EC50", "setting": "[2]; both partners purified", "value": 17, "unit": "nM"}]}
